Values of other authors, collected in article PMC5755571.

Biological target: His64 (UniProt position 64, ILNNGHAFNVE)

## Carbonic anhydrase II (hCAII) (Homo sapiens)
  pKa: around 7
